First the molecules themselves.
B1: Human TMEV-like cardiovirus (nucleic acid, listed as Cardiovirus sp.)
DNA: TCCGACGTGGTTGGAATTAACATCTTTTCCGACGAAAGTGCTATTATGCCTCCCCGATTGTGTGATGCTTTCTGCCCTGCTGGGCGGAGCGTCCTCGGGTTGAGAAACCTTGAATCTTTTCCTTTGGAGCCTTGGCTCCCCCGGTCTAAGCCGCTTGGAATATGACAGGGTTATTTTCCAAACTCTTTATTTCTACTTTCATGGGTTCTATCCATGAAAAGGGTATGTGTTGCCCCTTCCTTCTTTGGAGAATCTGCGCGGCGGTCTTTCCGTCTCTCAACAGGCGTGGATGCAACATGCCGGAAACGGTGAAGAAAACAGTTTTCTGTGGAAATTTAGAGTGGACATCGAAACAGCTGTAGCGACCTCACAGTAGCAGCGGATTCCCCTCTTGGCGACAAGAGCCTCTGCGGCCAAAAGCCCCGTGGATAAGATCCACTGCTGTGAGCGGTGCAACCCCAGCACCCTGGTTCGATGGCCATTCTCTATGGAACCAGAAAATGGTTTTCTCAAGCCCTCCGGTAGAGAAGCCAAGAATGTCCTGAAGGTACCCCGCGCGCGGGATCTGATCAGGAGACCAATTGGCAGTGCTTTACGCTGCCACTTTGGTTTAAAAACTGTCACAGCTTCTCCAAACCAAGTGGTCTTGGTTTTCCAATTTTGTTGACTGACAAT
B2: Hubei sobemo-like virus 3 (nucleic acid)
DNA: GAGATGTTTGCGTGGGCCGTTGCGCTGCGGGCGGCCCACCTCCCTACGGGGACCGTGAGACACCGCTGGGGAAGGCCCCCACCCCCGGCCAAGGGGATCCTGCCGAGAGGCAGGAGAAAGAGGCCCAGCCCTCTGGGGCGCCTTTAGGGGTGCCTGGGAGGGAAGTACCCGAGCCGGGCGGCCGGTCGGGTGCGGCTGTGCAGTTCGAGGCTAACCGTAAGGAAGGCCTGAGCTGCCTCGGCTTGTCGGAAAGGAAGACGAAGGCACTTATCAAGGCTTTCAGGAAGCAGGAGCGCAATTACAGCGCGCGCCGTGCGGCCTGGATTAACCGCATTTGGCCG
B3: Hubei picorna-like virus 2 (nucleic acid)
DNA: AGCAACTTCTTTCTGAAAACTAGCTAGAGTTCGACGATCTCTCTGGCTAATGACAAATAACCAATCAAAAAGTCAAATGTTCATGTATATATATATTTAGTAGTGACCTTTATTTAGAAAAACTTTAGATGATTTATCGTCAAGTTGCCCTTTGTGAAGCGATCAGCTTTTTATATCGTTTCATTTTTGTATACGTCTTAATTGACGTTGTAAGTACGTTTTGCATACCTCACATTGAGGATAGTATCGTTTCCTGACTAAGAAGTTAAACTAGTCTACCAATAGCAACCATATAGGATATAGCTTTGTTTTTAACAAGGTTTAATCTGATCTTATGCTCTTGCTTACGGTGTTTTATGTATAGAAAAGTTTTTATAAAAACTACATAATTGTCAAAAGAAAAAGCGTTACGTACTGACGCATTTATGTTCACAGTGTGACACAAACCTTCTATATTTTGATTGTAAAATAGGCTTTGCCTGACCATTTATCAAATACAAACTGTTTCAAACGCCTCTCCGAGCCATATTGGCCGACGCGAATCGACATAACAGGGTGAGTTTACAGCTGCAGTTGCAGCCGAGGATCCACTTATTTGAGAGAGAATTACTCTTAACGAAATTTTGAAGTCACTTCTACACAGTTAAGTCTGAGTAGGCGTTATCCAAACGTAAA
B4: Hubei tombus-like virus 9 (nucleic acid)
DNA: GGACCATCCAGGCAGGTGTAGGCTAGTACCCTCACCTGACCTGTCGCGATGTTTGGCTTTGTGAGGCTTGTGGGAGGATCCCTTGGCCCATGCATTGCTGCTGTCATCGTGAAAAATGTTGTATGCTCGCACCTGGCGTGGAGGAAACGGCATTTGACGGATGCTAAGGAGGATTTGAAGGTCCTCAACTCCCATGCCTTATTACAAGTCCCCTTTCCTTCAAGCTTCGAGCCCACGTCTGTGACGAGCAGAGGTGAGGTTGGAGTCAAGAGGAGTCCTATTCAAGCTGTTCGCAGCAAGAACCATAAAACTTTCATTGCTCAATGGGCAAGAGCGGCTAAGGCTCGGTTCTCGTTTGCACGACAGTGTGAGCGGAGCCCTGTAAATGTCGCGGCCCTTCATCGGTGGTTTGCATCGGAGTTTAAGAAAATTGGCATGAACTTGCTCCAGGTTTCGTACGTGATCGATGAGGTTGTTGAACTTAGTTTGGAACCAACGTATGAGCGTATGGTGTCCGAAACTAAGAAGCAATTCCGTCATCGGGCACGTATGGAATACTACAACGAGAAAAAATGCCTTGAAAAGATCCACTAGGAACGC
B5: Hubei tombus-like virus 32 (nucleic acid)
DNA: TTCGGGTTTACCCGCGTAAGCGGCCACACTGACTGGTTGTCGGTGTTGAATTTGTATACCAGATGAGGAGACGTTACCACCGTCTCGGCAGTGCTACGTCTGGGAAAGGACTGTGATAGTGGACAGTCCTACCGTCTTTAGATACATTGCGTTGTGTATAGCCCGGGAGGGATTAACTAATAGCAACGCAATGCACACGGCGGTTCGGATTTGCTTGACTGATGGAAAGACATCTAAGTTCTAATTGAACC
B6: Hubei zhaovirus-like virus 1 (nucleic acid)
DNA: GTGCAGGATGGCCTTTCCCATCTTAAGTGGTTTGTAGGATTTCGTGGGTCCATACCCCCCGATTTCTTGGTACGTATTCCATGCACGGAGAATACGACCAAAACTCTTATTTCAAAAAATATTATTTTTTACTCTTGTGGGCTGAGTGCGACCCACCAGTTCCAGCTTAGCAACCTGGAAGTTGTTGGAGATTTATGGAACCAAATTACACATGCGTGGAGTGCCGCCACTCCGTATCTGTTCACTCATTACGCGATTAAGTTCTGCGACGAGACGAGCGAA
B7: Megirivirus E (nucleic acid)
DNA: GCTTGGCAACCTCATATCGTTACTCTGCCGACCAGTCTGGGTCGTGTGGCCACACAATGGGATTCGTTCTGTTGTGTAGAGTCACATGGCATTACTGGGCTGATCGGTGGGGATCCGTTGCCACCCCTAAACCCTTACATTTACTGGACTGCTTTTCTTGGCCCCGGAATGATTCGCTCACCCGCGATGAGGACTGTTGTTCTTATTATGGCAGGATTACGCGTCTGGTCCGCGTAAGGACTAATTCCTATGTTTATACGTTACTACCTTGTTCTGAACGGTGGGCGCCACCCCGCCTAGTAGGATCCTGGCTTATCGTGTAGACCTCTAGGGACCACATTAGCTAGAGTGTAGGCTGCTATGGATGGAGTAGTGACCCCTTTTTGGGTATCACTCTCTAAGACTCCGGAATGTGTCATAGTACGCTGGAAATCCTTACTTGTTTTTCCATGAGGGGGAGGTGGTGCTGAAATATTGCAAGCCACCCCTCGGTTAAAACAGTTTGGTGCCGCTTATGCCATATTACCGCCCCTTGTAGTTGGGCTGTTTTTGCAGCTCCGGGTTAGTAGAGTACCATAGTGGACGCGGTGTTGGGAATCACCGCCTTGGCTGCACACTGCTTGATAGAGCTGCGGCTGGTCAAGCTAATTGTGGTATAACCAGTTGATTTGGCAT
B8: Hepacivirus P (nucleic acid, listed as Hepacivirus sp.)
DNA: ACATGGGGGGGGGCTGACAGTGAGTACACTGTGCCAAGCAGGTGCTACGCTATGCCTAGGTGCTGCTGTAGGCCAAGGACATGTCCCAGTCATCCCAGGTGAGGGGGGGGGTTCCCCTCACCGCTGCCACTGCCTGATAGGGTCCTGCCGGAGGGTCTCGGTGTCCGGCTGTAC

This series deals with HEK293 cells. It is filed as cell-based, human. The settings on record: luminescence from secreted Gluc in supernatant 24 hours after transfection of HEK293 cells; circular RNA encoding Gluc with the named IRES (UTR truncated to 675 nt).
B1: the Expression is on record as 4.48E+07.

The molecule B2 had an Expression of 1.17E+05. Consider B3, for which the Expression worked out at 1.95E+05. B4: the Expression is given as 9.28E+04. B5 came in with an Expression of 9.23E+04. In the case of B6 it was 1.03E+05; in that of B7, 1.10E+07; in that of B8, 6.04E+05.

The record behind these values is US20230226096A1 (Orna Therapeutics, Inc., priority 2020, published 2023).
